Patent US20250188176A1

Target: canine IL-4RA (construct not given) (canine)
Assay: SPR, combinatorial Fab-SASA clone

Binder	Kd	koff	kon
AHF21170 (Fab, V domains shown, not shown: small tags and cut ends) VH: EVQLVESGGDLVKPGGSLRLSCVASGFTFRDYAMTWVRQAPGKGLQWVSLINGSGGKTYYADAVKGRFTISRDNAKNTLYLQMNSLRAEDTAVYYCAVDRLTKTIRPQYYGLWVWGQGTLVTVSS VL: DIVMTQTPLSLSVSPGETASISCRSSQSLTYSIGYNYLDWYLQKPGQSPQGLIYLGSKRASGVPDRFSGSGSGTDFTLRISRVEANDTGVYYCMQGLQSPLTFGQGTKLEIKR	0.94 nM	0.000138 s⁻¹	147000 M⁻¹ s⁻¹
AHF21190 (Fab, V domains shown, not shown: small tags and cut ends) VH: EVQLVESGGDLVKPGGSLRLSCVASGFTFRDYAMTWVRQAPGKGLQWVSLINGSGGKTYYADAVKGRFTISRDNAKNTLYLQMNSLRAEDTAVYYCAVDRLTKTIRPQYYGLWVWGQGTLVTVSS VL: DIVMTQTPLSLSVSPGETASISCRSSQSLLYSIGYNYLDWYLQKPGQSPQGLIYLGHKRASGVPDRFSGSGSGTDFTLRISRVEANDTGVYYCMQGLQSPLSFGQGTKLEIKR	0.68 nM	0.000152 s⁻¹	223000 M⁻¹ s⁻¹
AHF21187 (Fab, V domains shown, not shown: small tags and cut ends) VH: EVQLVESGGDLVKPGGSLRLSCVASGFTFRDYAMTWVRQAPGKGLQWVSLINGSGGKTYYADAVKGRFTISRDNAKNTLYLQMNSLRAEDTAVYYCAVDRKTKTIRPQYYGLWVWGQGTLVTVSS VL: DIVMTQTPLSLSVSPGETASISCRSSQSLTYSIGYNYLDWYLQKPGQSPQGLIYLGHKRASGVPDRFSGSGSGTDFTLRISRVEANDTGVYYCMQGLQSPLGFGQGTKLEIKR	0.769 nM	0.000132 s⁻¹	172000 M⁻¹ s⁻¹
AHF21172 (Fab, V domains shown, not shown: small tags and cut ends) VH: EVQLVESGGDLVKPGGSLRLSCVASGFTFRDYAMTWVRQAPGKGLQWVSLINGSGGKTYYADAVKGRFTISRDNAKNTLYLQMNSLRAEDTAVYYCAVDRLTKTIRPQYYGLWVWGQGTLVTVSS VL: DIVMTQTPLSLSVSPGETASISCRSSQSLLYSIGYNYLDWYLQKPGQSPQGLIYLGHKRASGVPDRFSGSGSGTDFTLRISRVEANDTGVYYCMQGLQSPLTFGQGTKLEIKR	0.74 nM	0.000168 s⁻¹	226000 M⁻¹ s⁻¹
AHF21188 (Fab, V domains shown, not shown: small tags and cut ends) VH: EVQLVESGGDLVKPGGSLRLSCVASGFTFRDYAMTWVRQAPGKGLQWVSLISGSGGKTYYADAVKGRFTISRDNAKNTLYLQMNSLRAEDTAVYYCAVDRLTKTIRPQYYGLWHWGQGTLVTVSS VL: DIVMTQTPLSLSVSPGETASISCRSSQSLTYSIGYNYLDWYLQKPGQSPQGLIYLGSKRASGVPDRFSGSGSGTDFTLRISRVEANDTGVYYCMQGLQSPLGFGQGTKLEIKR	0.857 nM	0.000278 s⁻¹	325000 M⁻¹ s⁻¹
AHF21184 (Fab, V domains shown, not shown: small tags and cut ends) VH: EVQLVESGGDLVKPGGSLRLSCVASGFTFRDYAMTWVRQAPGKGLQWVSLISGSGGKTYYADAVKGRFTISRDNAKNTLYLQMNSLRAEDTAVYYCAVDRLTKTIRPQYYGLWHWGQGTLVTVSS VL: DIVMTQTPLSLSVSPGETASISCRSSQSLLYSIGYNYLDWYLQKPGQSPQGLIYLGSKRASGVPDRFSGSGSGTDFTLRISRVEANDTGVYYCMQGLQSPLSFGQGTKLEIKR	1.89 nM	0.000543 s⁻¹	287000 M⁻¹ s⁻¹

Results, then the binder that gave them:

Kd	koff	kon	Binder
0.606 nM	9.69e-05 s⁻¹	160000 M⁻¹ s⁻¹	AHF21173 (Fab, V domains shown, not shown: small tags and cut ends) VH: EVQLVESGGDLVKPGGSLRLSCVASGFTFRDYAMTWVRQAPGKGLQWVSLINGSGGKTYYADAVKGRFTISRDNAKNTLYLQMNSLRAEDTAVYYCAVDRKTKTIRPQYYGLWVWGQGTLVTVSS VL: DIVMTQTPLSLSVSPGETASISCRSSQSLTYSIGYNYLDWYLQKPGQSPQGLIYLGHKRASGVPDRFSGSGSGTDFTLRISRVEANDTGVYYCMQGLQSPLSFGQGTKLEIKR
0.561 nM	9.52e-05 s⁻¹	170000 M⁻¹ s⁻¹	AHF21177 (Fab, V domains shown, not shown: small tags and cut ends) VH: EVQLVESGGDLVKPGGSLRLSCVASGFTFRDYAMTWVRQAPGKGLQWVSLINGSGGKTYYADAVKGRFTISRDNAKNTLYLQMNSLRAEDTAVYYCAVDRLTKTIRPQYYGLWVWGQGTLVTVSS VL: DIVMTQTPLSLSVSPGETASISCRSSQSLTYSIGYNYLDWYLQKPGQSPQGLIYLGSKRASGVPDRFSGSGSGTDFTLRISRVEANDTGVYYCMQGLQSPLGFGQGTKLEIKR
0.521 nM	9.58e-05 s⁻¹	184000 M⁻¹ s⁻¹	AHF21174 (Fab, V domains shown, not shown: small tags and cut ends) VH: EVQLVESGGDLVKPGGSLRLSCVASGFTFRDYAMTWVRQAPGKGLQWVSLINGSGGKTYYADAVKGRFTISRDNAKNTLYLQMNSLRAEDTAVYYCAVDRLTKTIRPQYYGLWVWGQGTLVTVSS VL: DIVMTQTPLSLSVSPGETASISCRSSQSLTYSIGYNYLDWYLQKPGQSPQGLIYLGHKRASGVPDRFSGSGSGTDFTLRISRVEANDTGVYYCMQGLQSPLSFGQGTKLEIKR
0.485 nM	0.000148 s⁻¹	306000 M⁻¹ s⁻¹	AHF21186 (Fab, V domains shown, not shown: small tags and cut ends) VH: EVQLVESGGDLVKPGGSLRLSCVASGFTFRDYAMTWVRQAPGKGLQWVSLINGSGGKTYYADAVKGRFTISRDNAKNTLYLQMNSLRAEDTAVYYCAVDRLTKTIRPQYYGLWHWGQGTLVTVSS VL: DIVMTQTPLSLSVSPGETASISCRSSQSLLYSIGYNYLDWYLQKPGQSPQGLIYLGHKRASGVPDRFSGSGSGTDFTLRISRVEANDTGVYYCMQGLQSPLTFGQGTKLEIKR
0.47 nM	0.000134 s⁻¹	285000 M⁻¹ s⁻¹	AHF21171 (Fab, V domains shown, not shown: small tags and cut ends) VH: EVQLVESGGDLVKPGGSLRLSCVASGFTFRDYAMTWVRQAPGKGLQWVSLINGSGGKTYYADAVKGRFTISRDNAKNTLYLQMNSLRAEDTAVYYCAVDRLTKTIRPQYYGLWHWGQGTLVTVSS VL: DIVMTQTPLSLSVSPGETASISCRSSQSLLYSIGYNYLDWYLQKPGQSPQGLIYLGHKRASGVPDRFSGSGSGTDFTLRISRVEANDTGVYYCMQGLQSPLSFGQGTKLEIKR
0.466 nM	8.27e-05 s⁻¹	178000 M⁻¹ s⁻¹	AHF21178 (Fab, V domains shown, not shown: small tags and cut ends) VH: EVQLVESGGDLVKPGGSLRLSCVASGFTFRDYAMTWVRQAPGKGLQWVSLINGSGGKTYYADAVKGRFTISRDNAKNTLYLQMNSLRAEDTAVYYCAVDRLTKTIRPQYYGLWVWGQGTLVTVSS VL: DIVMTQTPLSLSVSPGETASISCRSSQSLTYSIGYNYLDWYLQKPGQSPQGLIYLGSKRASGVPDRFSGSGSGTDFTLRISRVEANDTGVYYCMQGLQSPLSFGQGTKLEIKR
0.442 nM	0.000126 s⁻¹	286000 M⁻¹ s⁻¹	AHF21182 (Fab, V domains shown, not shown: small tags and cut ends) VH: EVQLVESGGDLVKPGGSLRLSCVASGFTFRDYAMTWVRQAPGKGLQWVSLINGSGGKTYYADAVKGRFTISRDNAKNTLYLQMNSLRAEDTAVYYCAVDRLTKTIRPQYYGLWHWGQGTLVTVSS VL: DIVMTQTPLSLSVSPGETASISCRSSQSLTYSIGYNYLDWYLQKPGQSPQGLIYLGHKRASGVPDRFSGSGSGTDFTLRISRVEANDTGVYYCMQGLQSPLLFGQGTKLEIKR
0.309 nM	9.11e-05 s⁻¹	295000 M⁻¹ s⁻¹	AHF21176 (Fab, V domains shown, not shown: small tags and cut ends) VH: EVQLVESGGDLVKPGGSLRLSCVASGFTFRDYAMTWVRQAPGKGLQWVSLINGSGGKTYYADAVKGRFTISRDNAKNTLYLQMNSLRAEDTAVYYCAVDRKTKTIRPQYYGLWHWGQGTLVTVSS VL: DIVMTQTPLSLSVSPGETASISCRSSQSLTYSIGYNYLDWYLQKPGQSPQGLIYLGHKRASGVPDRFSGSGSGTDFTLRISRVEANDTGVYYCMQGLQSPLGFGQGTKLEIKR
0.259 nM	5.68e-05 s⁻¹	219000 M⁻¹ s⁻¹	AHF21180 (Fab, V domains shown, not shown: small tags and cut ends) VH: EVQLVESGGDLVKPGGSLRLSCVASGFTFRDYAMTWVRQAPGKGLQWVSLINGSGGKTYYADAVKGRFTISRDNAKNTLYLQMNSLRAEDTAVYYCAVDRKTKTIRPQYYGLWHWGQGTLVTVSS VL: DIVMTQTPLSLSVSPGETASISCRSSQSLTYSIGYNYLDWYLQKPGQSPQGLIYLGSKRASGVPDRFSGSGSGTDFTLRISRVEANDTGVYYCMQPLQSPLTFGQGTKLEIKR

Target: canine IL-4RA (construct not given) (canine)
Assay: SPR, IL-4RA immobilised, periplasmic Fab

Improvement over parental	RU max	koff	Binder
2 fold	196 RU	0.000143 s⁻¹	FJ2246MP06F11 (Fab, V domains shown) VH: EVQLVESGGDLVKPGGSLRLSCVASGFTFRDYAMTWVRQAPGKGLQWVSLINGDGSKTYYADAVKGRFTISRDNAKNTLYLQMNSLRAEDTAVYYCAVDRLTKTIRPQYYGLWVWGQGTLVTVSS VL: DIVMTQTPLSLSVSPGETASISCRSSQSLLYSIGYNYLDWYLQKPGQSPQGLIYLGSKRASGVPDRFSGSGSGTDFTLRISRVEANDTGVYYCMQGLQSPLTFGQGTKLEIKR
1 fold	105 RU	0.00028 s⁻¹	FJ2246MP06G06 (Parental Fab of TB640_005) (Fab, V domains shown) VH: EVQLVESGGDLVKPGGSLRLSCVASGFTFRDYAMTWVRQAPGKGLQWVSLISGSGGKTYYADAVKGRFTISRDNAKNTLYLQMNSLRAEDTAVYYCAVDRLTKTIRPQYYGLWVWGQGTLVTVSS VL: DIVMTQTPLSLSVSPGETASISCRSSQSLLYSIGYNYLDWYLQKPGQSPQGLIYLGSKRASGVPDRFSGSGSGTDFTLRISRVEANDTGVYYCMQGLQSPLTFGQGTKLEIKR
2 fold	329 RU	0.000142 s⁻¹	FJ2246MP05A04 (Fab, V domains shown) VH: EVQLVESGGDLVKPGGSLRLSCVASGLPFRDYAMTWVRQAPGKGLQWVSLISGSGGKTYYADAVKGRFTISRDNAKNTLYLQMNSLRAEDTAVYYCAVDRLTKTIRPQYYGLWVWGQGTLVTVSS VL: DIVMTQTPLSLSVSPGETASISCRSSQSLLYSIGYNYLDWYLQKPGQSPQGLIYLGSKRASGVPDRFSGSGSGTDFTLRISRVEANDTGVYYCMQGLQSPLTFGQGTKLEIKR
2 fold	344 RU	0.000142 s⁻¹	FJ2246MP05G01 (Fab, V domains shown) VH: EVQLVESGGDLVKPGGSLRLSCVASGFPFRDFAMTWVRQAPGKGLQWVSLISGSGGKTYYADAVKGRFTISRDNAKNTLYLQMNSLRAEDTAVYYCAVDRLTKTIRPQYYGLWVWGQGTLVTVSS VL: DIVMTQTPLSLSVSPGETASISCRSSQSLLYSIGYNYLDWYLQKPGQSPQGLIYLGSKRASGVPDRFSGSGSGTDFTLRISRVEANDTGVYYCMQGLQSPLTFGQGTKLEIKR
